From PMC3713010, “Sox2 Transcriptionally Regulates Pqbp1, an Intellectual Disability-Microcephaly Causative Gene, in Neural Stem Progenitor Cells” come the findings set out here.

Sequences and labels used below:
B1: 36 (dsDNA)
DNA 1: GGGGGTGCATACATTTGTAATTCATTTAGGTGGTTTTCCCCC
DNA 2: GGGGGAAAACCACCTAAATGAATTACAAATGTATGCACCCCC
B2: 33 (dsDNA)
DNA 1: GGGGGATAGTACATTTGTTGTCATTAACAAATCAGTCCCCC
DNA 2: GGGGGACTGATTTGTTAATGACAACAAATGTACTATCCCCC
B3: 30 (dsDNA)
DNA 1: GGGGGTGTCTTCTCCCTAATGATTGTTGTATGACCCCCC
DNA 2: GGGGGGTCATACAACAATCATTAGGGAGAAGACACCCCC
B4: 25 (dsDNA)
DNA 1: GGGGGCAGATAACTTTGTCCTTTTTGATTTTGAGTGAAGACCCCC
DNA 2: GGGGGTCTTCACTCAAAATCAAAAAGGACAAAGTTATCTGCCCCC
B5: 26 (dsDNA)
DNA 1: GGGGGGTGGAGGCTTTGTGTAATCAGTCTGTGTACCCCC
DNA 2: GGGGGTACACAGACTGATTACACAAAGCCTCCACCCCCC
B6: 42 (dsDNA)
DNA 1: GGGGGGCTTCAGCATTGTGAAATTGAATCATTGCCCCCC
DNA 2: GGGGGGCAATGATTCAATTTCACAATGCTGAAGCCCCCC
B7: 24 (dsDNA)
DNA 1: GGGGGCTTGTATCTTTGTATGTTCACAGAAAGCAAAGTAGCGTGGCCCCC
DNA 2: GGGGGCCACGCTACTTTGCTTTCTGTGAACATACAAAGATACAAGCCCCC
B8: 41 (dsDNA)
DNA 1: GGGGGTTTGGAAAACAAAACATTAACCAAAATTTTCCCCC
DNA 2: GGGGGAAAATTTTGGTTAATGTTTTGTTTTCCAAACCCCC
B9: 35 (dsDNA)
DNA 1: GGGGGGTTTCTCTAATTAATAGACTTCATTGTTCAAAACTATTTTACATTTGTTCCCCC
DNA 2: GGGGGAACAAATGTAAAATAGTTTTGAACAATGAAGTCTATTAATTAGAGAAACCCCCC
B10: 27 (dsDNA)
DNA 1: GGGGGCACACCTGTTTGTTTTCCACTTCACAGAGGAGGCATAGGAAACTCCCCC
DNA 2: GGGGGAGTTTCCTATGCCTCCTCTGTGAAGTGGAAAACAAACAGGTGTGCCCCC
B11: 44 (dsDNA)
DNA 1: GGGGGAAACCATGGGGGGTGGGCTGTAAACACAAAAAGGATTCCCCCC
DNA 2: GGGGGGAATCCTTTTTGTGTTTACAGCCCACCCCCCATGGTTTCCCCC
B12: 46 (dsDNA)
DNA 1: GGGGGTTATTTCACAAAATCAACAAATCAAAAAGCCCCC
DNA 2: GGGGGCTTTTTGATTTGTTGATTTTGTGAAATAACCCCC
B13: 29 (dsDNA)
DNA 1: GGGGGAAAAACTTTTTGTTATTTCATTTTTATTAGTGGCCCCC
DNA 2: GGGGGCCACTAATAAAAATGAAATAACAAAAAGTTTTTCCCCC
B14: 32 (dsDNA)
DNA 1: GGGGGCGTTGCACACAAACCTTAATTTTCCAATCTATTCCCCC
DNA 2: GGGGGAATAGATTGGAAAATTAAGGTTTGTGTGCAACGCCCCC
B15: 40 (dsDNA)
DNA 1: GGGGGTTTGTCATTTTGTAGTGCTAGGAATTAAACCCATGTCCCCC
DNA 2: GGGGGACATGGGTTTAATTCCTAGCACTACAAAATGACAAACCCCC
B16: 37 (dsDNA)
DNA 1: GGGGGTTTCATGGTTTGTTAGCTATTCTCTTATCACCCCCC
DNA 2: GGGGGGTGATAAGAGAATAGCTAACAAACCATGAAACCCCC
B17: 28 (dsDNA)
DNA 1: GGGGGAAAAAAGATTCTAATCTTTTTTGTGGTGGTGGCCCCC
DNA 2: GGGGGCCACCACCACAAAAAAGATTAGAATCTTTTTTCCCCC
B18: 45 (dsDNA)
DNA 1: GGGGGAAATGTGCTTTATTTCACAAAATCAACAACCCCC
DNA 2: GGGGGTTGTTGATTTTGTGAAATAAAGCACATTTCCCCC
B19: 39 (dsDNA)
DNA 1: GGGGGTTCAGGTTTTTGTAGGAACTTAAATTTTATGATTAGCCCCC
DNA 2: GGGGGCTAATCATAAAATTTAAGTTCCTACAAAAACCTGAACCCCC
B20: 38 (dsDNA)
DNA 1: GGGGGAGGTTTTGATGATTATGAACAAAGCTTCTGTCCCCC
DNA 2: GGGGGACAGAAGCTTTGTTCATAATCATCAAAACCTCCCCC
B21: 43 (dsDNA)
DNA 1: GGGGGAGGAGTGCTTTGTAAAAATAACTTCTATGTCCCCC
DNA 2: GGGGGACATAGAAGTTATTTTTACAAAGCACTCCTCCCCC
B22: 31 (dsDNA)
DNA 1: GGGGGTCCTCTCCTTTGTTTTGTCCTCACACCCCCAGCTGACCAGGTGCCCCC
DNA 2: GGGGGCACCTGGTCAGCTGGGGGTGTGAGGACAAAACAAAGGAGAGGACCCCC
B23: 34 (dsDNA)
DNA 1: GGGGGTTGTTCCCTTTGACTTCTTGTGACTTTAACAAATTCTAAAGCCCCC
DNA 2: GGGGGCTTTAGAATTTGTTAAAGTCACAAGAAGTCAAAGGGAACAACCCCC

The first series concerns the target T1, Oct6 DNA-binding domain (BD-Oct6) (Mus musculus (B6), UniProt P21952 317-416).
T1 sequence: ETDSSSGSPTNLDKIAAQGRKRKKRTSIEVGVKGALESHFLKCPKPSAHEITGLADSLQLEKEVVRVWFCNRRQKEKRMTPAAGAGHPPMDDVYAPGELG
In words: EMSA; 10% glycerol, 20 mM HEPES pH 7.8, 45 mM KCl, 10 mM NaCl, 1 mM EDTA, 1 mM DTT, 0.2 ug/uL BSA, 0.1% NP-40, 50 ng poly-dIdC; 20 ng each GST protein; room temperature 30 min (heterodimers 4 C); 6% PAGE 0.25x TBE. Conditions: protein: recombinant; tags: GST (N-terminal, pGEX-6P-1); label: 32P-dCTP fill-in of the 5' (dG)5 overhangs of both strands (Methods; control probes are given with GGG). The procedure, abridged:
(§1)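 Transcription factor DNA-binding domains carrying a GST tag were expressed in E. coli BL21, purified on glutathione-sepharose and tested against annealed candidate cis-element oligonucleotides labelled with 32P-dCTP. Each reaction held 20 ng protein, 40,000–50,000 cpm probe and 50 ng poly-dIdC in HEPES/KCl glycerol buffer with BSA and detergent, incubated 30 min at room temperature, then run on 6% polyacrylamide in 0.25×TBE at 4°C. DNA binding was scored as the radioactivity of the band in the expected shift region, read on a phosphor imager.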
On to B1, for which the binding result is listed as “binds”.

For the molecule B2, the binding result is listed as “binds”.

For the molecule B3, the binding result was “binds”.

In the case of B4, the binding result is “no binding”.

Consider B5, for which the binding result was “binds”.

For the molecule B6, the binding result was “no binding”.

For the molecule B7, the binding result was “no binding”.

As for B8, the binding result was “binds”.

With B9, the binding result was “binds”.

Turning to B10, the binding result is reported as “no binding”.

In the case of B11, the binding result is listed as “no binding”.

In the case of B12, the binding result is listed as “binds”.

For the molecule B13, the binding result is “binds”.

As to B14, the binding result was “binds”.

Take B15: the binding result was “binds”.

Turning to B16, the binding result was “no binding”.

Take B17: the binding result is “no binding”.

Take B18: the binding result was “binds”.

Regarding B19, the binding result is recorded as “binds”.

As to B20, the binding result is given as “binds”.

As to B21, the binding result is “no binding”.

B22: the binding result is “no binding”.

Turning to B23, the binding result was “no binding”.

For a further series, the target named is T2, Brn2 DNA-binding domain (BD-Brn2) (Mus musculus (B6), UniProt P31360 336-435).
T2 sequence: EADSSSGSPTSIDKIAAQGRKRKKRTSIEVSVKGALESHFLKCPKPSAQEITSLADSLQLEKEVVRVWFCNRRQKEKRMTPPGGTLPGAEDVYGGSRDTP
The description is as above. Conditions: protein: recombinant; tags: GST (N-terminal, pGEX-6P-1); label: 32P-dCTP fill-in of the 5' (dG)5 overhangs of both strands (Methods; control probes are given with GGG). Summed up: as §1
In the case of B1, the binding result was “binds”.

In the case of B2, the binding result is “binds”.

In the case of B3, the binding result is on record as “binds”.

For B4, the binding result is on record as “no binding”.

As to B5, the binding result is reported as “binds”.

On to B6, for which the binding result is recorded as “no binding”.

Turning to B7, the binding result is given as “no binding”.

Regarding B8, the binding result is “no binding”.

Turning to B9, the binding result is recorded as “binds”.

Turning to B10, the binding result is given as “no binding”.

Take B11: the binding result is “no binding”.

For B12, the binding result is on record as “no binding”.

Regarding B13, the binding result was “no binding”.

As for B14, the binding result is listed as “binds”.

Regarding B15, the binding result is listed as “binds”.

Consider B16, for which the binding result was “no binding”.

For the molecule B17, the binding result is reported as “no binding”.

On to B18, for which the binding result is listed as “no binding”.

For B19, the binding result is “binds”.

Turning to B20, the binding result is on record as “no binding”.

With B21, the binding result is on record as “no binding”.

Take B22: the binding result is “no binding”.

In the case of B23, the binding result was “no binding”.

A further series deals with Pax6 DNA-binding domain (BD-Pax6) (Mus musculus (B6), UniProt P63015 190-289). The series is described as above. As to conditions: protein: recombinant; tags: GST (N-terminal, pGEX-6P-1); label: 32P-dCTP fill-in of the 5' (dG)5 overhangs of both strands (Methods; control probes are given with GGG). The procedure, abridged: as §1
Chain of Pax6 DNA-binding domain (BD-Pax6) (P63015 190-289): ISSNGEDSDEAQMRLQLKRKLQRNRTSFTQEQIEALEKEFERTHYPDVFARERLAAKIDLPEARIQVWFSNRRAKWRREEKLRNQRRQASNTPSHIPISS
As to B1, the binding result is given as “binds”.

On to B2, for which the binding result is on record as “binds”.

For B3, the binding result is reported as “no binding”.

Regarding B4, the binding result was “no binding”.

Take B5: the binding result was “no binding”.

In the case of B6, the binding result was “binds”.

Regarding B7, the binding result is reported as “no binding”.

Take B8: the binding result is on record as “binds”.

As for B9, the binding result is reported as “binds”.

As for B10, the binding result is reported as “no binding”.

Regarding B11, the binding result is listed as “no binding”.

Take B12: the binding result is reported as “binds”.

In the case of B13, the binding result is on record as “no binding”.

Turning to B14, the binding result was “binds”.

Consider B15, for which the binding result is given as “binds”.

With B16, the binding result is on record as “no binding”.

Regarding B17, the binding result is “no binding”.

Take B18: the binding result is on record as “binds”.

With B19, the binding result is “binds”.

Take B20: the binding result is “no binding”.

For B21, the binding result is “no binding”.

As to B22, the binding result is “no binding”.

Take B23: the binding result was “binds”.
